We go through 2 compounds from patent US6761878B2, “Pathological tissue detection and treatment employing targeted benzoindole optical agents” (Mallinckrodt, Inc., priority 2001, dated 2004).

Series [1] relates to CA20948 rat tissues and organs. Nature of the series: Fluorescence imaging of ex-vivo tissues and organs from CA20948 tumor bearing rat. The class given is in vivo. Particulars: 27 hours post administration (FIG. 5). As to the method: Individual organs were removed from the CA20948 rat which was injected with cytate 1 and were imaged.
In series [2] the test system is DSL 6/A (pancreatic) tumor. Nature of the series: In vivo fluorescence imaging of DSL 6/A tumor bearing rats. Details: species or system male Lewis rats. The conditions noted are these: images at 2 and 30 minutes post administration, 0.5 ml of 0.42 mg/ml i.v. The source says: (§1) A non-invasive in vivo fluorescence imaging apparatus was employed to assess the efficacy of indocyanine green (ICG) in three different rat tumor cell lines of the inventive contrast agents developed for tumor detection in animal models. A LaserMax Inc. laser diode of nominal wavelength 780 nm and nominal power of 40 mW was used. The detector was a Princeton Instruments model RTE/CCD-1317-K/2 CCD camera with a Rodenstock 10 mm F2 lens (stock #542.032.002.20) attached. An 830 nm […] (CVI Laser Corp., part #F10-830-4-2) was mounted in front of the CCD input lens, such that only emitted fluorescent light from the contrast agent was imaged.
(§2) Three tumor cell lines, DSL 6/A (pancreatic), Dunning R3327-H (prostate), and CA20948 (pancreatic), which are rich in somatostatin (SST-2) receptors were induced into male Lewis rats by solid implant technique in the left flank area (Achilefu et al., Invest. Radiology, 2000, pp. 479-485). Palpable masses were detected nine days post implant.
(§3) The animals were anesthetized with xylazine:ketamine:acepromazine (1.5:1.5:0.5^v/v) at 0.8 ml/kg via intramuscular injection. The left flank was shaved to expose the tumor and surrounding surface area. A 21-gauge butterfly needle equipped with a stopcock connected to two syringes containing heparinized saline was placed into the tail vein of the rat. […]

Series [3] relates to Dunning R3327-H (prostate) tumor. Nature of the series: In vivo fluorescence imaging of Dunning R3327-H tumor bearing rats. Details: species or system male Lewis rats. Particulars: images at 2 and 30 minutes post administration, 0.5 ml of 0.42 mg/ml i.v.
Text: as §1, §2, §3

The subject of series [4] is CA20948 (pancreatic) tumor, rich in somatostatin (SST-2) receptors. As to the kind of experiment: In vivo fluorescence imaging of CA20948 tumor bearing rats. Further details: species or system male Lewis rats.
Text: as §1, §2, §3

Take `C[C@@H](O)[C@H](NC(=O)[C@@H]1CSSC[C@H](NC(=O)[C@@H](Cc2ccccc2)NC(=O)CC[N+]2=C(/C=C/C=C/C=C/C=C3/N(CCC(=O)O)c4ccc5ccccc5c4C3(C)C)C(C)(C)c3c2ccc2ccccc32)C(=O)N[C@@H](Cc2ccc(O)cc2)C(=O)N[C@H](Cc2c[nH]c3ccccc23)C(=O)N[C@@H](CCCCN)C(=O)N[C@@H]([C@@H](C)O)C(=O)N1)C(=O)O` [Cytate 1, monooctreotate-bisethylcarboxymethylindocyanine dye]: in series [1] (ex vivo organ), the “uptake of the conjugate in adrenal glands” value is “High uptake”, the “uptake of the conjugate in heart” value is reported as “Significant lower uptake”, the “uptake of the conjugate in liver” value was “Significant lower uptake” and the “uptake of the conjugate in pancreas” value is on record as “High uptake”. The “uptake of the conjugate in spleen” value in series [1] (ex vivo organ) is listed as “Significant lower uptake”. In series [1] (ex vivo tissue), the “uptake of the conjugate in muscle” value is “Significant lower uptake” and the “uptake of the conjugate in tumor tissue” value was “High uptake”.
With `CC1(C)C(/C=C/C=C/C=C/C=C2\N(CCCCS(=O)(=O)O)c3ccc4ccccc4c3C2(C)C)=[N+](CCCCS(=O)(=O)[O-])c2ccc3ccccc3c21` [ICG, indocyanine green], the “perfusion of the agent into the tumor” value in series [2] was “slow perfusion of the agent into the tumor over time”; in series [3], “slow perfusion of the agent into the tumor over time”; in series [4] (images at 2 and 30 minutes post administration, 0.5 ml of 0.42 mg/ml i.v.) it was “only a slight and transient perfusion that was cleared after only 30 minutes post injection”. The “non-specific localization into the tumor line” value in series [4] (compared to the other two lines) was “no non-specific localization”.
